# Source: patent US10487307B2, “Culture method for pluripotent stem cells” (FUJIFILM CORPORATION, priority 2013, dated 2019)
# B1: RCP-11: recombinant polypeptide for culture, SEQ ID NO: 25; vitronectin positions 1-55, 269-277, 295-341, 342-373, C274S (protein)
# chain: MDQESCKGRCTEGFNVDKKCQCDELCSYYQSCCTDYTAECKPQVTRGDVFTMPEDESQEESEGSEDIFELLFWGRTSAGTRQPQFISRDWHGVPGQVDAAMAGRIYISGMAPRPSLAKKQRFRHRNRKGYRSQRGHSRGRNQN
# modifications: Vitronectin-derived Recombinant Protein (RCP-11)
# notes: vitronectin positions 1-55, 269-277, 295-341, 342-373, C274S
# B2: RCP-1: recombinant polypeptide for culture, SEQ ID NO: 15; human vitronectin positions 1-55 and 269-459 with N-terminal methionine (protein)
# chain: MDQESCKGRCTEGFNVDKKCQCDELCSYYQSCCTDYTAECKPQVTRGDVFTMPEDEPSQEECEGSSLSAVFEHFAMMQRDSWEDIFELLFWGRTSAGTRQPQFISRDWHGVPGQVDAAMAGRIYISGMAPRPSLAKKQRFRHRNRKGYRSQRGHSRGRNQNSRRPSRATWLSLFSSEESNLGANNYDDYRMDWLVPATCEPIQSVFFFSGDKYYRVNLRTRRVDTVDPPYPRSIAQYWLGCPAPGHL
# modifications: Vitronectin-derived Recombinant Protein (RCP-1)
# Assays:
# iPS cells [1] = experiment: Cell growth property evaluation 2 (2-mercaptoethanol concentration in Essential 8); format: cell-based, human; details: RCP-11 100 μg/ml, 72 hours
# Method: A cell culture surface coated with RCP-11 was prepared in the same manner as in <Cell growth property evaluation 1> of Example 1. iPS cells collected in the same manner as in <Cell growth property evaluation 1> were suspended in the respective media composed as shown in Table 12 and seeded into wells at a cell density of 10,000 cells/well. After the cells were cultured for 72 hours, the number of cells were quantified in the same manner as in <Cell growth property evaluation 1>, and the cell growth properties were evaluated based on a cell growth rate which is a ratio calculated by regarding the number of cells cultured using RPC-11 as being 100%.
# [2] = Evaluation 2 about amount of residual polypeptide adsorbed (2-mercaptoethanol in PBS); format: physicochemical; details: PBS with 2-mercaptoethanol 8.96 μM to 89.6 mM, 37° C.; FIG. 7
# Method: A cell culture surface coated with RCP-11 was prepared in the same manner as in Example 3, and then PBS containing 2-mercaptoethanol was added thereto such that the final concentration of 2-mercaptoethanol became 89.6 mM (0.7% by mass), 8.96 mM (0.07% by mass), 895.94 μM (0.007% by mass), 89.59 μM (0.0007% by mass), or 8.96 μM (0.00007% by mass), followed by incubation at 37° C. for a predetermined time. Thereafter, in the same manner as in Example 3, the amount of RCP-11 adsorbed was determined, and the residual rate of the polypeptide adsorbed was obtained. In FIG. 7, the amount of residual RCP-11 adsorbed is expressed as a ratio calculated by regarding the amount of RCP-11 adsorbed immediately after the starting of incubation as being 100%. Furthermore, “2-ME” indicates 2-mercaptoethanol.
# iPS cells [3] = experiment: Example 5: cell growth on pretreated RCP-11 surface; format: cell-based, human
# Method: Meanwhile, in the same manner as in <Cell growth property evaluation 1> of Example 3, iPS cells were collected and suspended in Essential 8. The iPS cells were then seeded into the respective wells, to which 2-mercaptoethanol was added so as to accelerate the desorption of RCP-11, at a cell density of 10,000 cells/well, thereby starting culture.
# (§1) After the cells were cultured for 72 hours, the number of cells was quantified in the same manner as in <Cell growth property evaluation 1> of Example 3. In the table, each of the residual rate of RCP-11 adsorbed and the cell growth rate is expressed as a ratio calculated by regarding the residual rate of the polypeptide adsorbed and the cell growth rate in the case where the pretreatment with PBS is performed as being 100%.
# [4] = Example 5: residual rate of RCP-11 adsorbed after 2-mercaptoethanol pretreatment; format: physicochemical; details: 24 hours
# Method: In the same manner as in Evaluation 1 about amount of residual polypeptide adsorbed> of Example 3, RCP-11 was added to the respective wells, thereby obtaining a coated cell culture surface. Thereafter, a 2-mercaptoethanol/PBS solution of which the concentration was adjusted in advance as shown in Table 14 was added thereto, followed by incubation for 24 hours, thereby accelerating the desorption of RCP-11.
# as §1
# iPS cells [5] = experiment: Evaluation of maintenance of undifferentiated state (reference examples); format: cell-based, human
# Method: iPS cells collected in the same manner as in <Cell adhesiveness evaluation 1> were suspended in TeSR2. The iPS cells were seeded into 6-well plate (Tissue culture-treated, Falcon), onto which each of the samples 1, 2, 5, 6, and 7 used in <Cell adhesiveness evaluation 1> was adsorbed in the same manner as in <Cell adhesiveness evaluation 1>, and cultured in a CO2 incubator at 37° C. Except for the day after the seeding, the medium was replaced every day. In the same method as described above, the cells were subcultured every six days.
# After being cultured for 1 month under the conditions described above, the cells were immobilized using 4% paraformaldehyde and treated with 1% Triton-X/PBS so as to enhance the membrane permeability. After the cells were subjected to a blocking treatment using an Image IT Signal Enhancer (Invitrogen), an anti-human NANOG antibody (AF 1997, R&D Systems, Inc.), an Alexa Fluor 555 binding rabbit anti-goat IgG antibody (Invitrogen), and DAPI (4′,6-diamidino-2-phenylindole, Dojindo Molecular Technologies, Inc.) were added thereto for labeling, and the cells were imaged using a fluorescence microscope.
# FIGS. 3A and 4A show the iPS cells cultured on RCP-1; FIGS. 3B and 4B show the iPS cells cultured on RCP-11; FIGS. 3C and 4C show the iPS cells cultured on natural human vitronectin; FIGS. 3D and 4D show the iPS cells cultured on rLaminin-5; and FIGS. 3E and 4E show the iPS cells cultured on rLaminin-511. The scale bar in the images indicates […]. In FIGS. 3A to 3E, the images on the left side are full images of the colony, and the images on the right side are magnified images. In FIGS. 4A to 4E, the images on the left side are images of the cells stained with DAPI, and the images on the right side are images of the cells stained with an anti-NANOG antibody. The scale bar in FIGS. 3A to 4E indicates 200 μm.
# iPS cells [6] = experiment: Cell adhesiveness evaluation 3 (RCP-1 added amount); format: cell-based, human; details: for Cell adhesion rate (%): natural vitronectin 130 pmol/cm^2 = 100%, n=3
# Method: The cell adhesiveness was evaluated in the same manner as in <Cell adhesiveness evaluation 1>, except that RCP-1 was used after the concentration thereof was adjusted to 125 pmol/cm^2 to 1,000 pmol/cm^2 by using PBS. In Table 10, the cell adhesion rate is expressed as a ratio calculated by regarding a cell adhesion rate with respect to the cell culture surface, onto which natural vitronectin is adsorbed at a concentration of 130 pmol/cm^2, as being 100%. n=3.
molecule,measurement,setting,value
B1,Cell growth rate,"iPS cells [1]; Essential8, 2-mercaptoethanol 0, 10,000 cells/well, this = 100%",100%
same,Cell growth rate,"iPS cells [1]; Essential8, 2-mercaptoethanol 10 μM (0.0000078% by mass)",104.1%
same,Cell growth rate,"iPS cells [1]; Essential8, 2-mercaptoethanol 10 μM (0.000078% by mass)",97.3%
same,Cell growth rate,"iPS cells [1]; Essential8, 2-mercaptoethanol 100 μM (0.00078% by mass)",49.2%
same,Cell growth rate,"iPS cells [1]; Essential8, 2-mercaptoethanol 1 mM (0.0078% by mass)",38.7%
same,Cell growth rate,"iPS cells [1]; Essential8, 2-mercaptoethanol 10 mM (0.078% by mass)",40.2%
same,amount of residual RCP-11 versus 2-mercaptoethanol concentration,[2],tends to decrease as the concentration of 2-mercaptoethanol increases
same,Cell growth rate (%),"iPS cells [3]; pretreatment 2-Mercaptoethanol 8.96 μM (0.00007% by mass), Essential 8, 72 hours, PBS pretreatment = 100%",85.2%
same,Cell growth rate (%),"iPS cells [3]; pretreatment 2-Mercaptoethanol 895.94 μM (0.007% by mass), Essential 8, 72 hours, PBS pretreatment = 100%",70.7%
same,Cell growth rate (%),"iPS cells [3]; pretreatment 2-Mercaptoethanol 89.6 mM (0.7% by mass), Essential 8, 10,000 cells/well, 72 hours, PBS pretreatment = 100%",38.0%
same,Cell growth rate (%),"iPS cells [3]; pretreatment PBS, Essential 8, 72 hours, this = 100%",100%
same,Residual rate of RCP-11 adsorbed (%),"[4]; pretreatment 2-Mercaptoethanol 8.96 μM (0.00007% by mass), PBS pretreatment = 100%",82.2%
same,Residual rate of RCP-11 adsorbed (%),"[4]; pretreatment 2-Mercaptoethanol 895.94 μM (0.007% by mass), PBS pretreatment = 100%",77.4%
same,Residual rate of RCP-11 adsorbed (%),"[4]; pretreatment 2-Mercaptoethanol 89.6 mM (0.7% by mass), PBS pretreatment = 100%",56.6%
same,Residual rate of RCP-11 adsorbed (%),"[4]; pretreatment PBS, this = 100%",100%
B2,form of iPS cell colony,"iPS cells [5]; TeSR2, subcultured every six days, FIGS. 3A to 3E",form specific to undifferentiated cells
same,NANOG expression,"iPS cells [5]; cultured for 1 month in TeSR2, anti-NANOG staining, FIGS. 4A to 4E",strongly expressed NANOG in the entirety of the colony
same,Cell adhesion rate (%),iPS cells [6]; added amount 125 pmol/cm^2,90.3 ± 25.3%
same,Cell adhesion rate (%),iPS cells [6]; added amount 250 pmol/cm^2,89.2 ± 10.6%
same,Cell adhesion rate (%),iPS cells [6]; added amount 500 pmol/cm^2,108.8 ± 23.0%
same,Cell adhesion rate (%),iPS cells [6]; added amount 1000 pmol/cm^2,98.5 ± 17.2%
same,adhesiveness of iPS cells,iPS cells [6]; added amount equal to or greater than 125 pmol/cm^2,equivalent to the cell adhesion rate of the natural vitronection
